Experimental data reported in US20140087995A1 (published 2014).
Numbered stars: 1 amine (or outer) side, 2 acyl side, 3 side chain; on linkers, the order of the positions; unused ones are H or OH. Bridge positions count the residues as written; N and C are the ends. Side chains are listed from the residue outwards. Ends that are not written are not given here. * marks the point of attachment. C20 diacid = O=C(O)CCCCCCCCCCCCCCCCCCC(=O)*; γGlu = O=C(O)[C@H](CCC(=O)[*:2])N[*:1]; AEEA = NCCOCCOCC(=O)O

T1: rat calcitonin receptor (rat, UniProt P32214 25-516)
T1 construct: whole, on cells; Used as membranes prepared from BHK tk'ts 13 cells transiently transfected with the rat calcitonin receptor (Assay VIII); also called rCTR; rat calcitonin (a) receptor
T1 sequence (looked up): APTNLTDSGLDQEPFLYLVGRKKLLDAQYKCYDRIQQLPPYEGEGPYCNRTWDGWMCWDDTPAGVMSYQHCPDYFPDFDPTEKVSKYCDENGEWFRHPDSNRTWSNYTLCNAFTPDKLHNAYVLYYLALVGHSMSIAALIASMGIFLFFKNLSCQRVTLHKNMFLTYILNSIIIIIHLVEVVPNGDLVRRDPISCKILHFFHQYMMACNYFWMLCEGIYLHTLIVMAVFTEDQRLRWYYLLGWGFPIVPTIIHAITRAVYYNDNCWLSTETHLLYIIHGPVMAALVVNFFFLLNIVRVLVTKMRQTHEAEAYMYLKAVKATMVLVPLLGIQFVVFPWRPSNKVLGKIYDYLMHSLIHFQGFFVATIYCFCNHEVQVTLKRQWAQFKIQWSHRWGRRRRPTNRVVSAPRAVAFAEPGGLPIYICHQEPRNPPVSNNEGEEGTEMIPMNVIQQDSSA

T2: human calcitonin receptor (human, UniProt P30988 25-474)
T2 construct: whole, on cells; Used as membranes prepared from a BHK tk'ts 13 cell line stably transfected with the human calcitonin receptor (Assay VII); also called hCTR; hCT
T2 sequence (looked up): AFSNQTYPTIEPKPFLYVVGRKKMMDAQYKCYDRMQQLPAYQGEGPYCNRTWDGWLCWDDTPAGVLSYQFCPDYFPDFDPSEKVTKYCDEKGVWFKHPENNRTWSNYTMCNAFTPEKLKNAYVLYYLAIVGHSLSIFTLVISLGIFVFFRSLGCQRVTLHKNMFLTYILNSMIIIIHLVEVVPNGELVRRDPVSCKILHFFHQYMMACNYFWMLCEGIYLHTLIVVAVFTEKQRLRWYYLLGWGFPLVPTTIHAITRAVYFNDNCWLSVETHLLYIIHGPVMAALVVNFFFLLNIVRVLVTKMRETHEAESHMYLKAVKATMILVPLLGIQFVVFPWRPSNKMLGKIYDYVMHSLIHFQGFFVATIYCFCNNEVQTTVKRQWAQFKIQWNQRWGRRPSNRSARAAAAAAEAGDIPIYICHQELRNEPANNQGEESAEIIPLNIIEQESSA

T3: rat amylin receptor (rat calcitonin receptor + rat RAMP 3) (rat, UniProt P32214 25-516; Q9JJ73 23-147)
T3 construct: whole, on cells; Used as membranes prepared from BHK tk'ts 13 cells transiently transfected with rat calcitonin receptor and rat RAMP 3 (Assay VI); also called rAmylin-R; rat amylin 3(a) receptor
T3 sequence (looked up) 1: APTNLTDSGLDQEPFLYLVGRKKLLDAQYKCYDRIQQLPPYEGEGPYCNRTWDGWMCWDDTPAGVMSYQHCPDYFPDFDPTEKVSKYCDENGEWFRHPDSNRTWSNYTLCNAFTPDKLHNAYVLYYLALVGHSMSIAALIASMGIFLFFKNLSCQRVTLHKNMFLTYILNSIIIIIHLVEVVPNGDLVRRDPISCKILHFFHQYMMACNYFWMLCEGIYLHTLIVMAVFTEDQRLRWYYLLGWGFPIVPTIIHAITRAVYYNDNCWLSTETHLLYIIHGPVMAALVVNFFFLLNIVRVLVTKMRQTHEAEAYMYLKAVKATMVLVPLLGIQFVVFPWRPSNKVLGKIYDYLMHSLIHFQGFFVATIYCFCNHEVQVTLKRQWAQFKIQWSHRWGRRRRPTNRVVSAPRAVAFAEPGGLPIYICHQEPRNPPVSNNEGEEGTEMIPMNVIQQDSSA
T3 sequence (looked up) 2: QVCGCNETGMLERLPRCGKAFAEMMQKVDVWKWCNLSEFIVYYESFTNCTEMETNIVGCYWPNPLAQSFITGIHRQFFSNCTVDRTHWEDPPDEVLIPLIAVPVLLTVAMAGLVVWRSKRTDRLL


Columns and labels:
rat calcitonin receptor [1] = biological target: T1, rat calcitonin receptor; test: IC50 on rat CTR divided by IC50 on rat amylin receptor (Assays VIII/VI)
[2] = biological target: T2, human calcitonin receptor; test: IC50 on human CTR divided by IC50 on human amylin receptor (Assays VII/V)
Description: The resulting pellet was resuspended, homogenized and centrifuged (20.000 rpm, 15 min) in a buffer containing 20 mM Na-HEPES and 0.1 mM EDTA (pH 7.4, buffer 2). The resulting pellet was resuspended in buffer 2 and protein concentration was measured (BCA protein Assay, Pierce). The homogenate was kept cold during the whole procedure. The membranes were kept at −80° C. until use. The assay was performed in a 384 well Optiplate (PerkinElmer) in a total volume of 40 ul. Membranes were mixed with SPA beads. Final concentration of membranes 35 ng/μL final and SPA beads was 0.05 mg/well. Test-compounds were dissolved in DMSO and further diluted in assay buffer (50 mM Hepes, pH 7.4, 1 mM CaCl2, 5 mM MgCl₂, 0.1% OA and 0.02% Tween20). […] The final mixture was incubated with shaking at 400 rpm for 120 min at 25° C. prior to centrifugation (1500 rpm, 10 min). Samples were analyzed on TopCounter™ (Packard). The IC₅₀ was calculated using (one site binding competition analysis) GraphPad Prism5 as a measure of receptor affinity.
Membranes were prepared in the following way; the cells were rinsed with PBS and incubated with Versene for approximately 5 min before harvesting. The cells were flushed with PBS and the cell-suspension was centrifuged for 5 min at 1000 rpm. Cells were homogenized (Ultrathurrax) in a buffer containing 20 mM Na-HEPES and 10 mM EDTA (pH 7.4) and centrifuged at 20.000 rpm for 15 min. The resulting pellet was resuspended, homogenized and centrifuged (20.000 rpm, 15 min) in a buffer containing 20 mM Na-HEPES and 0.1 mM EDTA (pH 7.4, buffer 2). The resulting pellet was resuspended in buffer 2 and protein concentration was measured (BCA protein Assay, Pierce). The homogenate was kept cold during the whole procedure. The membranes were kept at −80° C. until use. Assay was performed in a 384 well Optiplate (PerkinElmer) in a total volume of 40 ul. Membranes were mixed with SPA beads.

rat calcitonin receptor [3] = biological target: T1, rat calcitonin receptor; test: SPA competition with 125I-calcitonin, membranes of BHK cells with rat CTR (Assay VIII)
[4] = biological target: T3, rat amylin receptor (rat calcitonin …); test: SPA competition with 125I-rat amylin, membranes of BHK cells with rat CTR + rat RAMP3 (Assay VI)
Description: The binding assay was performed using scintillation proximity assay (SPA) beads (RPNQ0001) from PerkinElmer and cell membranes from the Amylin 3(a)/CRE-luc cells (as described in Assay (II)) were used. Membranes were prepared in the following way; the cells were rinsed with PBS and incubated with Versene for approximately 5 min before harvesting. The cells were flushed with PBS and the cell-suspension was centrifuged for 5 min at 1000 rpm. Cells were homogenized (ultrathurrax) in a buffer containing 20 mM Na-HEPES and 10 mM EDTA (pH 7.4) and centrifuged at 20.000 rpm for 15 min. The resulting pellet was resuspended, homogenized and centrifuged (20.000 rpm, 15 min) in a buffer containing 20 mM Na-HEPES and 0.1 mM EDTA (pH 7.4, buffer 2). The resulting pellet was resuspended in buffer 2 and protein concentration was measured (BCA protein Assay, Pierce). The homogenate was kept cold during the whole procedure. The membranes were kept at −80° C. until use. The assay was performed in a 384 well Optiplate (PerkinElmer) in a total volume of 40 ul. Membranes were mixed with SPA beads. Final concentration of membranes 35 ng/μL final and SPA beads was 0.05 mg/well. Test-compounds were dissolved in DMSO and further diluted in assay buffer (50 mM Hepes, pH 7.4, 1 mM CaCl2, 5 mM MgCl₂, 0.1% OA and 0.02% Tween20). […] The final mixture was incubated with shaking at 400 rpm for 120 min at 25° C. prior to centrifugation (1500 rpm, 10 min). Samples were analyzed on TopCounter™ (Packard). The IC₅₀ was calculated using (one site binding competition analysis) GraphPad Prism5 as a measure of receptor affinity.
Cells were grown in DMEM with 10% FBS and 1% Pen/Strep. Approximately 48 hours after transfection, the cells were harvested and membranes were prepared.

Binder | Ratio rCT/rAmylin binding (rat calcitonin receptor [1]) | Ratio hCT/hAmylin binding [2] | IC50 (rat calcitonin receptor [3]) | IC50 [4]
K([AEEA-γGlu-C20 diacid])CNTATCATQRLARFLRHSSPNFGAIPSSTNVGSNTY-NH2 (disulfide 2-7; N-terminus assumed; SMILES CC[C@H](C)[C@H](NC(=O)[C@H](C)NC(=O)CNC(=O)[C@H](Cc1ccccc1)NC(=O)[C@H](CC(N)=O)NC(=O)[C@@H]1CCCN1C(=O)[C@H](CO)NC(=O)[C@H](CO)NC(=O)[C@H](Cc1c[nH]cn1)NC(=O)[C@H](CCCNC(=N)N)NC(=O)[C@H](CC(C)C)NC(=O)[C@H](Cc1ccccc1)NC(=O)[C@H](CCCNC(=N)N)NC(=O)[C@H](C)NC(=O)[C@H](CC(C)C)NC(=O)[C@H](CCCNC(=N)N)NC(=O)[C@H](CCC(N)=O)NC(=O)[C@@H](NC(=O)[C@H](C)NC(=O)[C@@H]1CSSC[C@H](NC(=O)[C@@H](N)CCCCNC(=O)COCCOCCNC(=O)CC[C@H](NC(=O)CCCCCCCCCCCCCCCCCCC(=O)O)C(=O)O)C(=O)N[C@@H](CC(N)=O)C(=O)N[C@@H]([C@@H](C)O)C(=O)N[C@@H](C)C(=O)N[C@@H]([C@@H](C)O)C(=O)N1)[C@@H](C)O)C(=O)N1CCC[C@H]1C(=O)N[C@@H](CO)C(=O)N[C@@H](CO)C(=O)N[C@H](C(=O)N[C@@H](CC(N)=O)C(=O)N[C@H](C(=O)NCC(=O)N[C@@H](CO)C(=O)N[C@@H](CC(N)=O)C(=O)N[C@H](C(=O)N[C@@H](Cc1ccc(O)cc1)C(N)=O)[C@@H](C)O)C(C)C)[C@@H](C)O, Analogue of human amylin; also called compound 82) | 87 | 140 | 143 nM | 1.64 nM
K([AEEA-γGlu-C20 diacid])CNTATCATQRLANFLRHSSPNFGAIPPSTPVGSNTY-NH2 (disulfide 2-7, Analogue of human amylin; also called compound 53) | 130 | 104 | 10.9 nM | 0.084 nM
K([AEEA-γGlu-C20 diacid])CNTATCATQRLANFLRHSSPNFGAIPSSTNVGHNTY-NH2 (disulfide 2-7; N-terminus assumed; SMILES CC[C@H](C)[C@H](NC(=O)[C@H](C)NC(=O)CNC(=O)[C@H](Cc1ccccc1)NC(=O)[C@H](CC(N)=O)NC(=O)[C@@H]1CCCN1C(=O)[C@H](CO)NC(=O)[C@H](CO)NC(=O)[C@H](Cc1c[nH]cn1)NC(=O)[C@H](CCCNC(=N)N)NC(=O)[C@H](CC(C)C)NC(=O)[C@H](Cc1ccccc1)NC(=O)[C@H](CC(N)=O)NC(=O)[C@H](C)NC(=O)[C@H](CC(C)C)NC(=O)[C@H](CCCNC(=N)N)NC(=O)[C@H](CCC(N)=O)NC(=O)[C@@H](NC(=O)[C@H](C)NC(=O)[C@@H]1CSSC[C@H](NC(=O)[C@@H](N)CCCCNC(=O)COCCOCCNC(=O)CC[C@H](NC(=O)CCCCCCCCCCCCCCCCCCC(=O)O)C(=O)O)C(=O)N[C@@H](CC(N)=O)C(=O)N[C@@H]([C@@H](C)O)C(=O)N[C@@H](C)C(=O)N[C@@H]([C@@H](C)O)C(=O)N1)[C@@H](C)O)C(=O)N1CCC[C@H]1C(=O)N[C@@H](CO)C(=O)N[C@@H](CO)C(=O)N[C@H](C(=O)N[C@@H](CC(N)=O)C(=O)N[C@H](C(=O)NCC(=O)N[C@@H](Cc1c[nH]cn1)C(=O)N[C@@H](CC(N)=O)C(=O)N[C@H](C(=O)N[C@@H](Cc1ccc(O)cc1)C(N)=O)[C@@H](C)O)C(C)C)[C@@H](C)O, Analogue of human amylin; also called compound 76) | 56.8 | 80 | 38.9 nM | 0.686 nM
K([AEEA-γGlu-C20 diacid])CNTATCATQRLANFLRHSSPNFGAIPSSTNVGRNTY-NH2 (disulfide 2-7; N-terminus assumed; SMILES CC[C@H](C)[C@H](NC(=O)[C@H](C)NC(=O)CNC(=O)[C@H](Cc1ccccc1)NC(=O)[C@H](CC(N)=O)NC(=O)[C@@H]1CCCN1C(=O)[C@H](CO)NC(=O)[C@H](CO)NC(=O)[C@H](Cc1c[nH]cn1)NC(=O)[C@H](CCCNC(=N)N)NC(=O)[C@H](CC(C)C)NC(=O)[C@H](Cc1ccccc1)NC(=O)[C@H](CC(N)=O)NC(=O)[C@H](C)NC(=O)[C@H](CC(C)C)NC(=O)[C@H](CCCNC(=N)N)NC(=O)[C@H](CCC(N)=O)NC(=O)[C@@H](NC(=O)[C@H](C)NC(=O)[C@@H]1CSSC[C@H](NC(=O)[C@@H](N)CCCCNC(=O)COCCOCCNC(=O)CC[C@H](NC(=O)CCCCCCCCCCCCCCCCCCC(=O)O)C(=O)O)C(=O)N[C@@H](CC(N)=O)C(=O)N[C@@H]([C@@H](C)O)C(=O)N[C@@H](C)C(=O)N[C@@H]([C@@H](C)O)C(=O)N1)[C@@H](C)O)C(=O)N1CCC[C@H]1C(=O)N[C@@H](CO)C(=O)N[C@@H](CO)C(=O)N[C@H](C(=O)N[C@@H](CC(N)=O)C(=O)N[C@H](C(=O)NCC(=O)N[C@@H](CCCNC(=N)N)C(=O)N[C@@H](CC(N)=O)C(=O)N[C@H](C(=O)N[C@@H](Cc1ccc(O)cc1)C(N)=O)[C@@H](C)O)C(C)C)[C@@H](C)O, Analogue of human amylin; also called compound 78) | 69.9 | 60.7 | 90.6 nM | 1.3 nM
